What all share (experiment): Fluorometric determination of kinetic parameters for hydrolysis of substrates by enkephalinase
Assay type in all cases: biochemical, rat

Substrate in data set [1]: CC(=O)NCC(=O)N[C@@H](Cc1c[nH]c2ccccc12)C(=O)NCC(=O)O
The conditions noted are these: other: peptides I and II: HPLC analysis of 1 hr incubations of 1 mM peptide with 200 ng (I) or 50 ng (II) enzyme; pH 7.4; 37.0 °C. On the procedure: (§1) Fluorescence measurements were made using a Perkin Elmer, model 650-10S spectrofluorometer, equipped with a temperature controlled cell-holder, maintained at 37° C. Two procedures were used. The first combined a 50 μl solution of dansylated peptide with 50 μl of purified rat kidney enkephalinase in 50 mM, pH 7.4 HEPES buffer, containing 0.1% Tween 20, yielding a substrate concentration from 1 μM to 1 mM. After 1 hour at 37° C., 500 μl of 0.1M EDTA were added to the tubes. The 600 μl mixture was transferred into a quartz cuvette, and fluorescence measured. For dansyl-Gly-Trp-Gly, the excitation wavelength was set at 280 nm and emission at 360 nm. For the two tyrosine containing peptides, the excitation wavelength was at 277 nm and emission at 315 nm. Both slits were set at 2 nm. Known amounts of Trp-Gly and Tyr-Gly, diluted in the same mixture (100 μl HEPES, Tween 20, 500 μl EDTA), were run in parallel as standards. The fluorescence in the incubation media could thus be related to the amounts of hydrolyzed substrates. The second procedure permitted continuous monitoring of the hydrolysis of the dansylated peptides. A 500 μl solution of substrate at appropriate concentration, in 50 mM, pH 7.4 HEPES buffer containing 0.1% Tween 20 was pipetted in a quartz cuvette, and allowed to equilibrate in the cell holder of the fluorimeter at 37° C. Ten μl of purified rat kidney enkephalinase was added and the increase in tryptophan or tyrosine fluorescence was continuously monitored (excitation=280 nm, emission=360 nm for tryptophan, excitation 277, emission 315 for tyrosine). To minimize oxidation of tryptophan the intensity of excitation was reduced by adjusting the fluorimeter shutter so that a 10^-4 M solution of tryptophan in water gave a fluorescence of 20.0 with excitation set at 280 nm, emission at 360 nm, both slits at 2 nm, and sensitivity at 0.1. Under these conditions, tryptophan fluorescence was stable for over 2 hr.
(§2) The kinetic parameters for the hydrolysis of dansyl-Gly-Trp-Gly, dansyl-Gly-Tyr-Gly and Dansyl-Gly-Tyr-Gly-NH2 by purified rat kidney enkephalinase were measured by incubating increasing concentrations of the substrates with the enzyme and stopping the reaction by the addition of EDTA before fluorescence measurements were taken (Table 4).
(§3) Km and kcat values for substrates III, IV and V were obtained by measuring the increase in tryptophan or tyrosine fluorescence after 1 hr. incubations of increasing concentrations of substrates (from 1 μM to 1 mM) with 1 ng purified enzyme at 37° C. The kcat values for these substrates and peptides I and II were also obtained by HPLC analysis of 1 hr. incubations of 1 mM peptides with 200 ng (substrate I), 50 ng (substrates II and V), or 10 ng (substrates III and IV) enzyme. The kcat values obtained by both methods for substrates III, IV and V were in close agreement.

Substrate in data set [2]: CN(C)c1cccc2c(S(=O)(=O)NCC(=O)N[C@@H](Cc3c[nH]c4ccccc34)C(=O)NCC(=O)O)cccc12
The following applies: other: fluorescence after 1 hr incubation, 1 μM to 1 mM substrate, 1 ng purified enzyme, 37° C., pH 7.4. On the procedure:
as §1, §2, §3

Substrate in data set [3]: CN(C)c1cccc2c(S(=O)(=O)NCC(=O)N[C@@H](Cc3ccc(O)cc3)C(=O)NCC(=O)O)cccc12
The following applies: other: fluorescence after 1 hr incubation, 1 μM to 1 mM substrate, 1 ng purified enzyme, 37° C., pH 7.4. On the procedure:
as §1, §2, §3

Substrate in data set [4]: CN(C)c1cccc2c(S(=O)(=O)NCC(=O)N[C@@H](Cc3ccc(O)cc3)C(=O)NCC(N)=O)cccc12
The conditions noted are these: other: fluorescence after 1 hr incubation, 1 μM to 1 mM substrate, 1 ng purified enzyme, 37° C., pH 7.4. On the procedure: as §1, §2, §3

Substrate in data set [5]: NCC(=O)N[C@@H](Cc1c[nH]c2ccccc12)C(=O)NCC(=O)O
The conditions noted are these: other: peptides I and II: HPLC analysis of 1 hr incubations of 1 mM peptide with 200 ng (I) or 50 ng (II) enzyme; pH 7.4; 37.0 °C. On the procedure: as §1, §2, §3

kcat, Km and kcat/Km data for one protein are collected here from patent US5780025A, “Compositions and methods for the synthesis and assay of enkephalinase” (Genentech, Inc., priority 1993, dated 1998).

The kcat is the number of substrate molecules converted per active site and unit of time at saturation. Broadly, the Km is the substrate concentration at which the rate is half of its maximum. The term kcat/Km denotes the turnover number divided by the Michaelis constant.

B1: purified rat kidney enkephalinase (Rattus norvegicus) (protein)
chain: MGRSESQMDITDINAPKPKKKQRWTPLEISLSVLVLLLTIIAVTMIALYATYDDGICKSSDCIKSAARLIQNMDASAEPCTDFFKYACGGWLKRNVIPETSSRYSNFDILRDELEVILKDVLQEPKTEDIVAVQKAKTLYRSCINESAIDSRGGQPLLTLLPDIYGWPVASQNWEQTYGTSWTAEKSIAQLNSKYGKKVLINFFVGTDDKNSTQHIIHFDQPRLGLPSRDYYECTGIYKEACTAYVDFMISVARLIRQEQRLPIDENQLSLEMNKVMELEKEIANATTKPEDRNDPMLLYNKMTLAKLQNNFSLEINGKPFSWSNFTNEIMSTVNINIQNEEEVVVYAPEYLTKLKPILTKYSPRDLQNLMSWRFIMDLVSSLSRNYKESRNAFRKALYGTTSETATWRRCANYVNGNMENAVGRLYVEAAFAGESKHVVEDLIAQIREVFIQTLDDLTWMDAETKKKAEEKALAIKERIGYPDDIISNENKLNNEYLELNYKEEEYFENIIQNLKFSQSKQLKKLREKVDKDEWISGAAVVNAFYSSGRNQIVFPAGILQPPFFSARQSNSLNYGGIGMVIGHEITHGFDDNGRNFNKDGDLVDWWTQQSANNFKDQSQCMVYQYGNFTWDLAGGQHLNGINTLGENIADNGGIGQAYRAYQNYVKKNGEEKLLPGLDLNHKQLFFLNFAQVWCGTYRPEYAVNSIKTDVHSPGNFRIIGTLQNSAEFADAFHCRKNSYMNPERKCRVW
notes: Rat kidney enkephalinase was purified to apparent homogeneity; from tissue; host or cells: rat kidney (male rats, membrane fraction, Triton X-100 solubilised)
Turning to B1, the catalytic constant (kcat) in data set [1] worked out at 3.63 s⁻¹; in data set [2], 15 s⁻¹; in data set [3], 19.05 s⁻¹; in data set [4] it was 4.13 s⁻¹; in data set [5] it was 0.883 s⁻¹. Moreover, the Michaelis constant (Km) came out at 30 µM in data set [2], 41 µM in data set [3] and 90 µM in data set [4]. Moreover, the kcat/Km in data set [2] worked out at 500000 M⁻¹ s⁻¹; in data set [3] it was 467000 M⁻¹ s⁻¹; in data set [4] it was 50000 M⁻¹ s⁻¹.
